Positions count from the first letter of the chain named.
Assays:
Hfq wt [1] = biological target: T1, Hfq wt (Escherichia coli, UniProt P0A6X3 1-102); experiment: EMSA; ternary complex with MgrR, unaffected; HBB buffer (composition not in material); competition and dissociation at RT; Kd gelshift 0.1 nM 32P-MgrR, 2 h RT, 5% native gel in TBM (89 mM Tris, 89 mM borat); details: protein: recombinant; pET15b); chain copies: 6
Hfq wt [2] = biological target: T1, Hfq wt; experiment: filter binding; 32P-A27 complex displaced by MgrR; HBB buffer (composition not in material); competition and dissociation at RT; Kd gelshift 0.1 nM 32P-MgrR, 2 h RT, 5% native gel in TBM (89 mM Tris, 89 mM borat); details: protein: recombinant; pET15b); chain copies: 6; label: 32P or unlabeled; single-stranded
Hfq wt [3] = biological target: T1, Hfq wt; experiment: EMSA; ternary complex with MgrR, annealing not markedly affected; HBB buffer (composition not in material); competition and dissociation at RT; Kd gelshift 0.1 nM 32P-MgrR, 2 h RT, 5% native gel in TBM (89 mM Tris, 89 mM borat); details: protein: recombinant; pET15b); chain copies: 6
Hfq wt [4] = biological target: T1, Hfq wt; experiment: filter binding; 32P-U18 complex displaced by MgrR; HBB buffer (composition not in material); competition and dissociation at RT; Kd gelshift 0.1 nM 32P-MgrR, 2 h RT, 5% native gel in TBM (89 mM Tris, 89 mM borat); details: protein: recombinant; pET15b); chain copies: 6; label: 32P or unlabeled; single-stranded

T1 sequence (P0A6X3 whole entry): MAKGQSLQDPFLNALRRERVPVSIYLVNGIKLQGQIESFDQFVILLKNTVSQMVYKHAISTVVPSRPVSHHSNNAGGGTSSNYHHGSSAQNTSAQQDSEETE

B1: ygdQ145_AU3 (structured_RNA)
RNA: GCUUCAUUUUUUUGGCAGGGCUUUUUAGAUGUUAUUUGCAUGGAUAACCGAUCCUAACGCCUGGCUUGCGCUCGGUACGCUGACGCUGCUGGAGAUCGUUCUUGGGAUCGACAAUGUGCUGGUCCUCUCUCUGGUGGUGGCAAAG
Hfq wt [1]
  binding result: binds

## AAAAAAAAAAAAAAAAAAAAAAAAAAA (ssRNA) [A27]
Hfq wt [2]
  binding result: binds

B2: eptB133_AU1_v1 (structured_RNA)
RNA: GCGCGUGUAGACCGCACUUAUCUGACUACCUCCGCACUUUUUCCCUGCCGGGCCUGAAAAGCCACUAAGCAGGGUGUUAUCACCUGUUUGUCCAGGGUUUGUUUGCAUGAGAUACAUCAAAUCGAUUACACAG
Hfq wt [3]
  binding result: binds

B3: eptB133_AU1_v2 (structured_RNA)
RNA: B2 RNA with A11U, C12U, C13U, G14U, C15U, A16U, A20U
Hfq wt [3]
  binding result: binds

## UUUUUUUUUUUUUUUUUU (ssRNA) [U18]
Hfq wt [4]
  binding result: binds

Reference: paper PMC6239178, “The binding of Class II sRNA MgrR to two different sites on matchmaker protein Hfq enables efficient competition for Hfq and annealing to regulated mRNAs”
